Test results as given in the Immune Epitope Database (IEDB).

Columns and labels:
[1] = target: HLA-B*07:02; experiment: IEDB peptide-MHC binding, purified MHC/competitive/radioactivity; filed as Kd, often an IC50 or EC50 that approximates it; ≥ and ≤ were set here for values at or beyond the usual limits of such assays
[2] = target: HLA-B*35:01; experiment: as above
[3] = target: HLA-B*51:01; experiment: as above
[4] = target: HLA-B*53:01; experiment: as above
[5] = target: HLA-B*54:01; experiment: as above
[6] = target: HLA-B*08:01; experiment: as above
[7] = target: HLA-B*51:01; experiment: IEDB peptide-MHC binding, purified MHC/competitive/fluorescence; filed as Kd, often an IC50 or EC50 that approximates it; ≥ and ≤ were set here for values at or beyond the usual limits of such assays; details: source organism: Mycobacterium tuberculosis H37Ra
[8] = target: HLA-A*68:02; experiment: IEDB peptide-MHC binding, purified MHC/competitive/radioactivity; filed as Kd, often an IC50 or EC50 that approximates it; ≥ and ≤ were set here for values at or beyond the usual limits of such assays
[9] = target: HLA-A*01:01; experiment: as above; details: source organism: Dengue virus 3 Martinique/1243/1999
[10] = target: HLA-A*02:06; experiment: as above
[11] = target: HLA-A*32:01; experiment: as above; details: source organism: Vaccinia virus WR
[12] = target: HLA-B*40:01; experiment: as above
[13] = target: HLA-A*02:01; experiment: as above
[14] = target: HLA-A*23:01; experiment: as above; details: source organism: Dengue virus 3 Martinique/1243/1999
[15] = target: HLA-B*15:01; experiment: as above
[16] = target: HLA-B*57:01; experiment: IEDB peptide-MHC binding, purified MHC/direct/fluorescence; filed as Kd, often an IC50 or EC50 that approximates it; ≥ and ≤ were set here for values at or beyond the usual limits of such assays
[17] = target: HLA-B*58:01; experiment: as above
[18] = target: HLA-A*11:01; experiment: IEDB peptide-MHC binding, purified MHC/competitive/radioactivity; filed as Kd, often an IC50 or EC50 that approximates it; ≥ and ≤ were set here for values at or beyond the usual limits of such assays
[19] = target: HLA-A*02:03; experiment: as above
[20] = target: HLA-A*26:01; experiment: as above; details: source organism: Dengue virus 1 Brazil/97-11/1997
[21] = target: HLA-A*02:02; experiment: as above; details: source organism: Vaccinia virus WR
[22] = target: HLA-A*03:01; experiment: as above; details: source organism: Vaccinia virus WR
[23] = target: HLA-A*31:01; experiment: as above; details: source organism: Vaccinia virus WR
[24] = target: HLA-A*33:01; experiment: as above; details: source organism: Vaccinia virus WR
[25] = target: HLA-A*68:01; experiment: as above; details: source organism: Vaccinia virus WR
[26] = source organism: Vaccinia virus WR
[27] = source organism: Dengue virus 3 Martinique/1243/1999
[28] = source organism: Triticum aestivum
[29] = source organism: SARS coronavirus Tor2
[30] = source organism: Dengue virus 1 Brazil/97-11/1997
[31] = source organism: Dengue virus 2 Jamaica/1409/1983
[32] = source organism: Dengue virus 4 Philippines/H241/1956
[33] = source organism: Lymphocytic choriomeningitis virus (strain Armstrong)
[34] = source organism: Giardia lamblia ATCC 50803
[35] = source organism: Mammarenavirus machupoense
[36] = source organism: Mammarenavirus juninense

## TPTIEDDKIV
[1]; [26]
  Kd: 19700 nM
[2]; [26]
  Kd: ≥ 52200 nM
[3]; [26]
  Kd: 10100 nM
[4]; [26]
  Kd: ≥ 29000 nM
[5]; [26]
  Kd: 3150 nM

## LPVCQSSSM
[1]; [27]
  Kd: 10.5 nM
[2]; [27]
  Kd: 12.6 nM
[3]; [27]
  Kd: 2740 nM
[4]; [27]
  Kd: 1010 nM

## SPYVKFIYF
[6]; [26]
  Kd: 1780 nM

## QPFPSQQPYL
[1]; [28]
  Kd: 17500 nM
[2]; [28]
  Kd: 433 nM
[3]; [28]
  Kd: 10.3 nM
[4]; [28]
  Kd: 8540 nM
[5]; [28]
  Kd: 10800 nM

## DPVYISQFSY
[1]; [26]
  Kd: ≥ 69600 nM
[2]; [26]
  Kd: 928 nM
[3]; [26]
  Kd: ≥ 69600 nM
[4]; [26]
  Kd: 10500 nM
[5]; [26]
  Kd: ≥ 38600 nM

## KPLLAPHHVV
[1]; [29]
  Kd: 179 nM
[2]; [29]
  Kd: ≥ 69900 nM
[3]; [29]
  Kd: ≥ 69600 nM
[4]; [29]
  Kd: ≥ 69900 nM
[5]; [29]
  Kd: 7250 nM

## LPVPLFPGF
[7]
  Kd: 249 nM

## ETWNRQDLLV
[8]; [30]
  Kd: 17 nM

## PPYCTIAPVGI
[1]; [28]
  Kd: 4470 nM
[2]; [28]
  Kd: ≥ 63700 nM
[3]; [28]
  Kd: ≥ 41300 nM
[4]; [28]
  Kd: ≥ 63700 nM
[5]; [28]
  Kd: ≥ 27700 nM

## RPLMESELVI
[1]; [29]
  Kd: 666 nM
[2]; [29]
  Kd: 395 nM
[3]; [29]
  Kd: 32.9 nM
[4]; [29]
  Kd: 217 nM
[5]; [29]
  Kd: ≥ 46000 nM

## MTTEDMLTV
[9]
  Kd: 7380 nM
[10]; [27]
  Kd: 2.85 nM
[8]; [27]
  Kd: 19.1 nM

## ELVENGKKV
[10]; source organism: Homo sapiens
  Kd: 9570 nM
[8]; source organism: Homo sapiens
  Kd: 6350 nM

## FPDIPVNNNI
[1]; [26]
  Kd: 821 nM
[2]; [26]
  Kd: 442 nM
[3]; [26]
  Kd: 66.7 nM
[4]; [26]
  Kd: 1.22 nM
[5]; [26]
  Kd: 69.3 nM

## AKNPNRFVI
[1]; source organism: Variola virus
  Kd: 11900 nM
[2]; source organism: Variola virus
  Kd: ≥ 77400 nM
[3]; source organism: Variola virus
  Kd: ≥ 77400 nM
[4]; source organism: Variola virus
  Kd: ≥ 78100 nM
[5]; source organism: Variola virus
  Kd: ≥ 78100 nM

## LPYPQPQLPY
[1]; [28]
  Kd: 4330 nM
[2]; [28]
  Kd: 0.487 nM
[3]; [28]
  Kd: 9.22 nM
[4]; [28]
  Kd: 4.49 nM
[5]; [28]
  Kd: 8530 nM

## NTTANISLTA
[8]; [30]
  Kd: 44.6 nM

## MAMFYAHAL
[11]
  Kd: 12500 nM
[6]; [26]
  Kd: 1.15 nM

## RRKRSVTMLL
[6]; [30]
  Kd: 3650 nM

## LEYTIVITPH
[12]; [31]
  Kd: 2470 nM

## FPLNSKVKVI
[1]; [29]
  Kd: ≥ 33400 nM
[2]; [29]
  Kd: ≥ 29400 nM
[3]; [29]
  Kd: 4710 nM
[4]; [29]
  Kd: 1070 nM
[5]; [29]
  Kd: 927 nM

## ELESQISEL
[13]; source organism: Homo sapiens
  Kd: ≥ 78100 nM
[8]; source organism: Homo sapiens
  Kd: ≥ 60000 nM

## AGRRSVSGDL
[6]; [30]
  Kd: 9260 nM

## FCSHHFHEL
[6]; [27]
  Kd: 135 nM

## WLGARYLEF
[14]
  Kd: 82.7 nM
[6]; [27]
  Kd: 2.26 nM
[15]; [27]
  Kd: 158 nM

## LLKFRVESC
[6]; source organism: Vaccinia virus Copenhagen
  Kd: 74.4 nM

## MPSACANGWI
[1]; [26]
  Kd: ≥ 31400 nM
[2]; [26]
  Kd: ≥ 69900 nM
[3]; [26]
  Kd: ≥ 43500 nM
[4]; [26]
  Kd: 5240 nM
[5]; [26]
  Kd: 5400 nM

## APSASAFFGM
[1]; [29]
  Kd: 122 nM
[2]; [29]
  Kd: 2140 nM
[3]; [29]
  Kd: 1990 nM
[4]; [29]
  Kd: 4110 nM
[5]; [29]
  Kd: ≥ 42700 nM

## KRKLRTLIL
[6]; [30]
  Kd: 462 nM

## ETQHGTTVV
[8]; [32]
  Kd: 8.6 nM

## MTATPPGTA
[8]; [27]
  Kd: 35.2 nM

## EPVPLTVKM
[1]; [33]
  Kd: 15000 nM
[2]; [33]
  Kd: 63.4 nM
[3]; [33]
  Kd: 12700 nM
[4]; [33]
  Kd: 327 nM
[5]; [33]
  Kd: ≥ 69500 nM

## MECSPRTGL
[12]; [31]
  Kd: 153 nM

## RSIRKFNTM
[6]; [26]
  Kd: 16.9 nM
[15]; [26]
  Kd: 4.38 nM

## RTRPPPCPH
[16]; [34]
  Kd: 935 nM
[17]; [34]
  Kd: ≥ 20000 nM

## MTDDIGMGV
[10]; [31]
  Kd: 7.05 nM
[8]; [31]
  Kd: 5.13 nM

## AETQHGTVLV
[12]; [30]
  Kd: 98.4 nM

## MLNNSFYYM
[18]; [35]
  Kd: 195 nM
[5]; [35]
  Kd: 7520 nM

## LEFEALGFLN
[12]; source organism: Murray valley encephalitis virus (strain MVE-1-51)
  Kd: 144 nM

## STANVSLAAI
[9]
  Kd: ≥ 47800 nM
[8]; [27]
  Kd: 2.12 nM

## STMTLLCLI
[8]; [32]
  Kd: 3.75 nM

## MPGVLSYVV
[1]; [36]
  Kd: 1030 nM
[2]; [36]
  Kd: 22.2 nM
[3]; [36]
  Kd: 208 nM
[4]; [36]
  Kd: 187 nM
[5]; [36]
  Kd: 0.507 nM

## QETWNRQDLL
[12]; [30]
  Kd: 9.21 nM

## NMDPLNDNI
[13]; source organism: Homo sapiens
  Kd: 1930 nM
[8]; source organism: Homo sapiens
  Kd: ≥ 85700 nM

## IINKRKKTSL
[6]; [27]
  Kd: 83.9 nM

## MVSAGSGEV
[19]; [30]
  Kd: 94.6 nM
[8]; [30]
  Kd: 29.6 nM

## GAITSAHFM
[16]; source organism: Mycobacterium tuberculosis str. Haarlem
  Kd: 687 nM
[17]; source organism: Mycobacterium tuberculosis
  Kd: 905 nM

## SAYTALFSGV
[19]; [27]
  Kd: 7.14 nM
[10]; [27]
  Kd: 1.16 nM
[8]; [27]
  Kd: 9.19 nM

## RKSGKKVIQL
[6]; [32]
  Kd: 301 nM

## DTAWDFGSI
[20]
  Kd: 562 nM
[8]; [30]
  Kd: 3.09 nM

## LAGPMVAGGL
[6]; [32]
  Kd: 7750 nM

## ALRFFLQRL
[6]; [26]
  Kd: 1990 nM

## YVNAILYQI
[13]; [26]
  Kd: 1430 nM
[21]
  Kd: 2050 nM
[19]; [26]
  Kd: 9940 nM
[10]; [26]
  Kd: 1980 nM
[8]; [26]
  Kd: 1860 nM

## LAKRFSKGLL
[6]; [30]
  Kd: 2530 nM

## RDALDNLAVL
[6]; [31]
  Kd: 1160 nM

## FPPTSFGPLV
[1]; [29]
  Kd: 2080 nM
[2]; [29]
  Kd: ≥ 24700 nM
[3]; [29]
  Kd: 6260 nM
[4]; [29]
  Kd: 4860 nM
[5]; [29]
  Kd: 1260 nM

## HVDGKILFV
[22]
  Kd: 3140 nM
[18]; [26]
  Kd: ≥ 72300 nM
[23]
  Kd: ≥ 40500 nM
[24]
  Kd: ≥ 77700 nM
[25]
  Kd: ≥ 77700 nM
[1]; [26]
  Kd: ≥ 77500 nM
[2]; [26]
  Kd: ≥ 77400 nM
[3]; [26]
  Kd: ≥ 68500 nM
[4]; [26]
  Kd: 11500 nM
[5]; [26]
  Kd: ≥ 78100 nM

## SLNALFVML
[11]
  Kd: 1230 nM
[6]; [26]
  Kd: 1260 nM

## IPCRDVVL
[1]; [28]
  Kd: 3680 nM
[2]; [28]
  Kd: 17100 nM
[3]; [28]
  Kd: 67.7 nM
[4]; [28]
  Kd: ≥ 49100 nM
[5]; [28]
  Kd: ≥ 87700 nM

## VEETNMITL
[12]; source organism: Dengue virus 4 Dominica/814669/1981
  Kd: 27.1 nM

## FIAFLRFLAI
[10]; [30]
  Kd: 14.9 nM
[8]; [30]
  Kd: 417 nM
[4]; [30]
  Kd: 1320 nM

## VEAGRTLRVL
[12]; source organism: Dengue virus 2 Peru/IQT2913/1996
  Kd: 12.1 nM

## LPTSITVPV
[1]; [35]
  Kd: 67.1 nM
[2]; [35]
  Kd: 3.55 nM
[3]; [35]
  Kd: 1970 nM
[4]; [35]
  Kd: 72.5 nM
[5]; [35]
  Kd: 4.01 nM

## LLQEENRQKL
[8]; source organism: Homo sapiens
  Kd: ≥ 60000 nM

## FPNITNLCPF
[1]; [29]
  Kd: 56.6 nM
[2]; [29]
  Kd: 1.66 nM
[3]; [29]
  Kd: 6.33 nM
[4]; [29]
  Kd: 0.782 nM
[5]; [29]
  Kd: 445 nM
